Laboratory results published in the Immune Epitope Database (IEDB).

These sequences were tested against HLA-A*02:01 (assay: IEDB peptide-MHC binding, purified MHC/competitive/radioactivity; ≥ and ≤ were set here for values at or beyond the usual limits of such assays). Conditions: source organism: Human alphaherpesvirus 1.

Sequence | IC50 [nM]
RMLGDVMAV | 1.7
VLDCVVTGA | 973
ALSPALTAL | 194
VMAARPMVV | 266
ELFGEAFEV | 90
GLVLVWYTV | 66
ALQTDNYTL | 29
ILDAARPAV | 99
IIPFLLVLV | 55
FLHDVENFL | 12
VMAAVCLQI | 15
LLVEVLREI | 1.6
QLFEAHPNV | 256
FLVPGTHVA | 45
AMHARMAAV | 19
YLANGGFLI | 0.56
RLSPFPALV | 60
SLNARGLLV | 145
GLWVCATSL | 36
RLMNDWAEV | 24
FMTALVLSL | 0.8
KLLWAVEPL | 12
VLGAAVYAL | 100
LLMGCDIVL | 2.3
GMHPRGVHA | ≥ 70000

Sequence | IC50 [nM]
LITNYLPSV | 5.2
FITTMAPRV | 32
ALLEACLRV | 6.6
ALGLSAFGV | 9.6
SLLWLGAGV | 54
TLLELVVSV | 1.8
GLARLDALV | 13
FLNQANCKI | 458
RLVDGVGGI | 217
RLPPHTQPV | 31
DLWNVMYTL | 333
TIHCFFFAV | 108
LLLISMYAL | 4.7
LLPAVQCAV | 63
FALDRPCLV | 76
FLLAKLTDI | 10
ALHQCFTEL | 831
KMAQCTLAV | 14
TLLDFAHGL | 10
KIFRCLTVL | 159
ILFLWSFLV | 0.36
VLGAAIWWV | 73
VLVVQPAPV | 112
FVALIPPTL | 704
FLASLVVLA | 1.7

Sequence | IC50 [nM]
LLQRANELV | 635
ALMRGRPGL | 1680
MLCGFSPAL | 8.5
FTQKSLFPI | 84
FVAPYFESV | 8.7
RLDALVVAA | 44
IVYLCPVLV | 137
RLATHLRAV | 159
SQLAHLVYV | 62
DMTPAELEV | 669
AMNRRIMNV | 1190
YVLNSQIAV | 121
RMWAWIHGL | 61
ALLQQTWTL | 0.39
MLYVIFPGT | 317
YLCDNFCPA | 27
ALVELNSGV | 9.3
ALAVFQPAV | 1.6
FLAASALGV | 7.4
GVVIIAALV | 1080
LLPEIAPNA | 30
RLPRYLACL | 76
KMSYPQFLA | 1400
MLLAFMTLV | 5.7
YVPPDMRGV | 511

Sequence | IC50 [nM]
GIAWYVTSI | 143
GLYLCVVYV | 47
TLLDQNNAL | 39
FLAPELVRA | 12
YIFSYDAYT | 310
YLACELLPA | 4.7
FWMSPVFNL | 96
FMAAKAAHL | 276
LLAKMLFYL | 5.6
YLLNYAGRI | 194
RLCLDVPPV | 8.5
SLDAKQWSV | 7.5
FMSVVNTNI | 60
GLFQPFMFV | 37
FMQPDNANL | 47
GLFVSLPVV | 4.7
VLADAINGL | 86
LLDDLGFSA | 46
GLLGSLVGA | 3.7
ALMGAVTSL | 4.2
VLLEKAPPL | 24
MLLATREYV | 46
FLGSCICFI | 12
VLGCDAALV | 521
SLYDVEFDA | 9.7

Sequence | IC50 [nM]
YLLGRPPNA | 12
LLLAGTPAV | 17
MLIKGVDLV | 16
KTWFLVPLI | 1.7
MVIACLLVA | 166
RMGELTAEI | 91
YMAKLHAYL | 11
ALAAIENYV | 2.7
VIACLLVAV | 205
ILVVSLLLV | 205
FILDNPGFV | 11
RLTGYPAGI | 1100
ALMLRLLRI | 46
KMNQTLLFL | 907
YLGAFLSVL | 16
CLSDLLGFL | 88
LMPSPPMPV | 124
GLVSFNFLV | 0.5
FVADVQHAA | 7750
KQLNYCHLI | 398
KMDIDVEYL | 148
ALLDRDCRV | 5.6
CLAEYCTSL | 186
GPGDPDVYL | 30600
LLGQVQTYV | 18

Sequence | IC50 [nM]
ALDHYDCLI | 180
FLTREILWA | 4.2
FLEDLSYPA | 0.64
FLQPTADLL | 26
AVGELLAPV | 84
FLYLAFVAL | 1970
GQAAALTDL | 2300
RLASLLTYA | 7.9
FVVWALLGL | 196
TMRDDLPLV | 61
ALYACVLAA | 5.6
KSMDDDTYV | 689
FAFRYVNRL | 122
FLCTADAAV | 3
QLFPGLAAL | 16
RLDSLDLTL | 101
GLISFYNFL | 1.5
RMFGMPTAL | 5.5
FLTCTDRSV | 83
LITDDGEVV | 13700
LLMVAVIMAI | 9
RLNNRPIAV | 20
GLFFSVYAL | 23
YVLHFACLV | 7.6
LLANTVRYL | 75

Sequence | IC50 [nM]
SLFDCIVPV | 0.17
KLAVYYYII | 31
LLDTGPFSA | 93
AVVPIIPFL | 1030
SEEEGNFYV | 19200
RLPHICYPV | 17
KLMARRAQV | 795
ALGMRGLVL | 491
RLTGVTSLV | 13
RLFDFFSRV | 0.2
FADTVVACV | 59
ALYYSVENV | 38
ALAPVFAFL | 2.2
VLAAVLLGA | 52
FLALVSNRV | 7.4
DLAEWVPRV | 4.3
SPGGFVQFV | 450
LLAVAVYAV | 5.8
YLSEEMMEL | 6.3
GLVFRFSEV | 262
GLLFVLLVA | 1060
VLADDVYPL | 2.4
CLLCNLLLV | 60
GLDEQQLDV | 1180
FVVYNLTGV | 2.2

Sequence | IC50 [nM]
YLALLEACL | 7.5
LLMNELLRV | 8.4
FLLKQFHAA | 53
SVYALGFGV | 1300
YLCPVLVFV | 9.5
FIPQYLSAV | 15
LLLRQWLHV | 207
EMADTFLDT | 1770
ILIEGIFFA | 0.17
ALVAWLTHA | 15
TLIPRLFAL | 35
FLGDDPSPA | 13
ALSALLTKL | 313
ALVACVAAL | 55
LLLVRAYWL | 63
VLFSGPSPL | 7.9
ALATALTEA | 10
FIYLALLEA | 11
VLANFCSAL | 14
GLAVDLYAL | 12
GMLICLTVL | 548
TISKPSEAV | 4780
TMLEDHEFV | 118
LLSGLPTYA | 177
FLHLYLFLT | 564

Sequence | IC50 [nM]
LLLALRHPA | 600
KLCSPVFAI | 9.3
FLARFWTRA | 48
LLIDTGVYA | 94
LLSNTLAEL | 5.1
FVWQERAAV | 261
GLNGDSFRV | 22
TLRGLFFSV | 94
LLAQFQHTV | 1.2
YLATGALLA | 55
VTTDSVRAL | 5350
FTATSIARV | 74
YLACLAAVI | 61
SLRNVLAAV | 5.4
GILTVVWTA | 2.1
VLTEPLCQV | 71
FVFVILARL | 720
SLSTYTVPI | 13
YFHALVYFV | 133
YLDEAGGHL | 23
FMVSSIDEL | 1.1
WLETELVFV | 85
FLTPLSVTL | 4.7
ILYSVLQHL | 55
AVHDPERPL | 3940

Sequence | IC50 [nM]
NIGAYVVLV | 282
RLARCLTPA | 23
CMFGVVSPA | 9.5
AVLAFVALI | 107
GLAVAMEV | 25
FMPDFSRVI | 101
RLVVVGWFL | 865
VLMDGHTGM | 136
RLQTYLTDI | 827
FLSAKTLTV | 11
VILPACAFV | 6.2
FLSTLPSDV | 76
QLQAAIFHA | 697
MLIDLGLDL | 14
LLLNTTLTV | 2.9
LLLHSLTPL | 6.9
RVYNIIQLV | 19700
TLSGMGYYL | 148
IAPNASLGV | 110
SLLSLEHTL | 55
LLFVLLVAL | 1130
QLLDPPAAV | 186
VLWSLLWLG | 1.4
AVWISLAQV | 259
WLLQITVLL | 130

Sequence | IC50 [nM]
FLRSCHWVL | 582
ILSPTAPSV | 6.1
LLSALGLSV | 8.9
YILNKPVFI | 52
FLGAGALAV | 80
VLDEVMSTL | 45
VLCGIAWYV | 7.9
SLQQELAHM | 71
LLLMGCDIV | 94
LLAFDTQPV | 9.3
FLCAKCLGA | 137
FLGGHVAVA | 65
FLADAVVRL | 52
GLAVVLWSL | 17
YLLEQLNNL | 5.7
ALSPVLPPM | 30
HLMRDPALL | 37
